Experimental findings from patent publication US20250027068A1 (published 2025) are described below.

The chains are these.
B1: PRT-216 (enzyme)
chain: MEVVEVWPYGQNPNGKTEILSQTEDSESLQRLRDIEDFQAEKKKENVVYTKWLDGVDVDDHDFRKIVDGNTEYYATPLLNGRGWYDINKDFNRDSDKCAAAVAANMFHYWLDQNRDNIDRFLRQSPEKHGIIELPDGQLKLSDFLNTYESDDGYRDKSKLFDFISNNFNGPVWTDKLLDNYINGYGYNYKYGRTIEDPTKNNSKINFFKKVFNGKILTDNHSIRNYNTFSDLLSEALYTGKAIGLSYGPAGLRHSLGHIISVWGADLDADGNVVAIYVTDSDDKKLTIGDERVGLKRYKISYDDENRARLTAYEENDNTGGQIRGLETLDTGKQAWADYFDKTEQTGTDQAEQLEHHHHHH
B2: PRT-221 (enzyme)
chain: MEVVEVWPYGQNPNGKTEILSQTEDSESLQRLRDIEDFQAEKKMQNVVYTKWLDGVDVKDHDFRKIVDGNIAYYATPLLNGRGFYDINKDFNRDSDKCAAAVAANMFHYWLDINRDNVDRFLRQNPEKHGIIELPDGQLKLSDFLNTYESDHGYRDKSKLFDFISNNFNGPVWTDKLLDNYINGYAYNYKYGRTIEDPTKNTSKINFFKEVFNEKILTNNHSIRNQNEFSVLLSEALYTGKAIGLSYGPAGLRHSLGHIISVWGADLDADGNVVAIYVTDSDDKKLTIGDERVGLKRYKISTDDENRLRLTAYEETHNTGGQIRGLWTLDTGKQAWADYFDKTEQTGTDQAEQLEHHHHHH
B3: PRT-213 (enzyme)
chain: MEVVEVWPYGQNPNGKTEILSQTEDSESLQRLRDIEDFQAEKKKEGVVYTKWLDGVTVKDHDFRKIVDGNIEYYATPLLNGRGWYDINKDFNRDSDKCAAAVAANMFHYWLDRNRDNVDRFLKQNPEKHGIIELPDGQLKLSDFLNTYESDNGYRDKSKLFDFISKNFNGPVWTDKLLDNYINGYGYNYKYGRTIEDPTKNTSKINFFKKVFNEKILTDIHSIRNQNEFSDLLSEALYTGKAIGLSYGPAGLRHSLGHIISVWGADFDEDGNVVAIYVTDSDDKKLTIGDERVGLKRYKVSTDDEGRARLTAYTETDNTGGQVRGLYTLDTGTQAWADYFDKTEQTGTDQAEQLEHHHHHH
B4: PRT-215 (enzyme)
chain: MEVVEVWPYGQNPNGKTEILSQTEDSESLQRLRDIEDFQAEKKKEGVVYTKWLDGVTVKDHDFRKIVDGNIEYYATPLLNGRGWYDINKDFNRDSDKCAAAVAANMFHYWLDRNRDNVDRFLKQNPEKHGIIELPDGQLKLSDFLNTYESDNGYRDKSKLFDFISKNFNGPVWTDKLLDNYINGYGYNYKYGRTIEDPTKNTSKINFFKKVFNEKILTDIHSIRNQNEFSDLLSEALYTGKAIGLSYGPAGLRHSLGHIISVWGADFDEDGNVVAIYVTDSDDKKLTIGDERVGLKRYKVSTDDEGRARLTAYTETDNTGGQVRGLWTLDTGTQAWADYFDKTEQTGTDQAEQLEHHHHHH
B5: PRT-212 (enzyme)
chain: MEVVEVWPYGQNPNGKTEILSQTEDSESLQRLRDIEDFQAEKKKEGVVYTKWLDGVDVKDHDFRKIVDGNIEYYATPLLNGRGFYDINKDFNQDSDKCAAAVAANMFHYWLDRNRDNVDRFLSQNPEKHGIIELPDGQLKLSDFLNTYESDDGYRDKSKLFDLISNNFNGPVWTDKLLDNYINGYAYNYKYGRTIEDPTKNTSKINFFKEVFNEKILTNIHSIRNQNEFSDKLSEALYTGKAIGLSYGPAGLRHSLGHIISVWGADLDEDGNVVAIYVTDSDDKKLTIGDERVGLKRYKVSTDDEGRLRLTAYEETDNTGGEIRGIWTLDTGKQAWADYFDKTEQTGTDQAEQLEHHHHHH
B6: PRT-211 (enzyme)
chain: MEVVEVWPYGQNPNGKTEILSQTEDSESLQRLRDIEDFQAEKKKQGVVYTKWLDGVDVDDHDFRKIVDGNIAYYATPLLNGKGFYDINKDFNRDSDKCAAAVAANMFHYWLDQNRDNVDRFLRQNPEKHGIIELPDGQLKLSDFLNTYESDNGYRDKSKLFDFISNNFNGPVWTDKLLDNYINGYAYNYKYGRTIEDPTKNTSKINFFKDVFNEKILTNIHSIRNYNTFSNLLSEALYTGKAIGLSYGPAGLRHSLGHIISVWGADLDEDGNVVAIYVTDSDDKKLTIGDERVGLKRYKISTDDEGRARLTAYEENDNTGGEIRGLWTLDTGKQAWADYFDKTEQTGTDQAEQLEHHHHHH
B7: PRT-210 (enzyme)
chain: MEVVEVWPYGQNPNGKTEILSQTEDSESLQRLRDIEDFQAEKKKQNVVYTKWLDGVTVDDHDFRKITDGNTAYYATPLLNGRGFYDINKDFNRDSDKCAAAVAANMFHYWLDQNRDNVDRFLKQNPEKHGIIELPDGQLKLSDFLNTYESDDGYRDKSKLFDFISNNFNGPVWTDKLLDNYINGYAYNYKYGRTIEDPTKNTSKINFFKEVFNEKLLTNNHSIRNQNEFSDLLSEALYTGKAIGLSYGPAGLRHSLGHIISVWGADFDADGNVVAIYVTDSDDKKLTIGDERVGLKRYKISSDDEGRARLTAYTEKHNTGGQIRGLYTLDTGKQEWADYFDKTEQTGTDQAEQLEHHHHHH
B8: PRT-218 (enzyme)
chain: MEVVEVWPYGQNPNGKTEILSQTEDSESLQRLRDIEDFQAEKKKQGVVYTKWLDGVNVDDHEFRKITDGNTEYYATPLLNGRGYYDINKDFNRDSDKCAAAVAANMFHYWLDRNRDNVDRFLRQNPDKHGIIELPDGQLKLSDFLNTYESDHDYRDKSKLFDFISNNFNGPVWTNKLLDNYINGYGYNYKYGRTIEDPTKNTSKINFFKEVFNGKLLTDNHSIRNKNEFSSKLSEALYTGKAIGLSYGPAGLRHSLGHIISVWGADLDEDGNVVAIYVTDSDDKKLTIGDERVGLKRYKVSYDDEGRARLTAYEETDNTGGEIRGLYTLDTGKQYWADYFDKTEQTGTDQAEQLEHHHHHH
B9: PRT-220 (enzyme)
chain: MEVVEVWPYGQNPNGKTEILSQTEDSESLQRLRDIEDFQAEKKKQGVVYTKWLDGVNVDDHEFRKITDGNTEYYATPLLNGRGYYDINKDFNRDSDKCAAAVAANMFHYWLDRNRDNVDRFLRQNPDKHGIIELPDGQLKLSDFLNTYESDHDYRDKSKLFDFISNNFNGPVWTNKLLDNYINGYGYNYKYGRTIEDPTKNTSKINFFKEVFNGKLLTDNHSIRNKNEFSSKLSEALYTGKAIGLSYGPAGLRHSLGHIISVWGADLDEDGNVVAIYVTDSDDKKLTIGDERVGLKRYKVSYDDEGRARLTAYEETDNTGGEIRGLWTLDTGKQYWADYFDKTEQTGTDQAEQLEHHHHHH
B10: PRT-217 (enzyme)
chain: MEVVEVWPYGQNPNGKTEILSQTEDSESLQRLRDIEDFQAEKKKQNVVYTKWLDGVTVDDSDFRKIKDGNTEYYATPLLNGRGFYDINKDFNRDSDKCAAAVAANMFHYWLDRNRDNVDRFLKQNPEKHGIIELPDGQLKLSDFLNTYESDNNYRDKSKLFDFISKNFNGPVWTNKLLDNYINGYGYNYKYGRTIEDPTKNTSKINFFKKVFNEKILTNVHQIFNYNEFSTLLSEALYTGKAIGLSYGPGGLRHSLGHIISVWGADLDADGNVVAIYVTDSDDKKLTIGDERVGLKRYKISTDDEGRARLTAYTETDNTGGQVRGIYTLDTGKQAWADYFDKTEQTGTDQAEQLEHHHHHH
B11: PRT-219 (enzyme)
chain: MEVVEVWPYGQNPNGKTEILSQTEDSESLQRLRDIEDFQAEKKKQNVVYTKWLDGVTVDDSDFRKIKDGNTEYYATPLLNGRGFYDINKDFNRDSDKCAAAVAANMFHYWLDRNRDNVDRFLKQNPEKHGIIELPDGQLKLSDFLNTYESDNNYRDKSKLFDFISKNFNGPVWTNKLLDNYINGYGYNYKYGRTIEDPTKNTSKINFFKKVFNEKILTNVHQIFNYNEFSTLLSEALYTGKAIGLSYGPGGLRHSLGHIISVWGADLDADGNVVAIYVTDSDDKKLTIGDERVGLKRYKISTDDEGRARLTAYTETDNTGGQVRGIWTLDTGKQAWADYFDKTEQTGTDQAEQLEHHHHHH
B12: PRT-214 (enzyme)
chain: MEVVEVWPYGQNPNGKTEILSQTEDSESLQRLRDIEDFQAEKKKEGVVYTKWLDGVDVDDHDFRKITDGDIEYYATPLLNGRGFYDINKDFNRDSDKCAAAVAANMFHYWLDRNRDNVDRFLKQNPEKHGIIELPDGQLKLSDFLNTYESDYGYRDKSKLFDFISNNFNGPVWTDKLLDNYINGYAYNYKYGRTIEDPTKNTSKINFFKEVFDEKLLTNNHSIRNYNEFSELLREALYTGKAIGLSYGPAGLRHSLGHIISVWGADLDEDGNVVAIYVTDSDDKKLTIGDERVGLKRYKVSSDDENRARLTAYEEKDNTGGEIRGLYTLDTGKQAWADYFDKTEQTGTDQAEQLEHHHHHH
Further: test concentration or dose not given here.

The target in the assay is pooled human IgG (human). The assay can be described thus: cell-based or functional assay.
For the molecule B1, the “Enzyme Activity Endpoint Assay (purified): Fab′2” value came to 0 ng/µL, the “Enzyme Activity Endpoint Assay (purified): Fc” value came out at 0 ng/µL, the “Enzyme Activity Endpoint Assay (purified): IgG” value was found to be 1660 ng/µL and the “Enzyme Activity Endpoint Assay (purified): scIgG” value was found to be 0 ng/µL.

Consider B2, for which the “Enzyme Activity Endpoint Assay (purified): Fab′2” value turned out to be 117 ng/µL, the “Enzyme Activity Endpoint Assay (purified): Fc” value turned out to be 439 ng/µL, the “Enzyme Activity Endpoint Assay (purified): IgG” value was 653 ng/µL and the “Enzyme Activity Endpoint Assay (purified): scIgG” value worked out at 461 ng/µL.

For the molecule B3, the “Enzyme Activity Endpoint Assay (purified): Fab′2” value was determined as 0 ng/µL, the “Enzyme Activity Endpoint Assay (purified): Fc” value came out at 244 ng/µL, the “Enzyme Activity Endpoint Assay (purified): IgG” value turned out to be 1290 ng/µL and the “Enzyme Activity Endpoint Assay (purified): scIgG” value amounted to 301 ng/µL.

For the molecule B4, the “Enzyme Activity Endpoint Assay (purified): Fab′2” value amounted to 73 ng/µL, the “Enzyme Activity Endpoint Assay (purified): Fc” value amounted to 310 ng/µL, the “Enzyme Activity Endpoint Assay (purified): IgG” value turned out to be 708 ng/µL and the “Enzyme Activity Endpoint Assay (purified): scIgG” value is 309 ng/µL.

For B5, the “Enzyme Activity Endpoint Assay (purified): Fab′2” value came out at 13 ng/µL, the “Enzyme Activity Endpoint Assay (purified): Fc” value was 435 ng/µL, the “Enzyme Activity Endpoint Assay (purified): IgG” value was 1270 ng/µL and the “Enzyme Activity Endpoint Assay (purified): scIgG” value came out at 599 ng/µL.

Take B6: the “Enzyme Activity Endpoint Assay (purified): Fab′2” value was 0 ng/µL, the “Enzyme Activity Endpoint Assay (purified): Fc” value is 68 ng/µL, the “Enzyme Activity Endpoint Assay (purified): IgG” value stood at 2190 ng/µL and the “Enzyme Activity Endpoint Assay (purified): scIgG” value was 0 ng/µL.

As for B7, the “Enzyme Activity Endpoint Assay (purified): Fab′2” value amounted to 0 ng/µL, the “Enzyme Activity Endpoint Assay (purified): Fc” value was found to be 87 ng/µL, the “Enzyme Activity Endpoint Assay (purified): IgG” value was 1780 ng/µL and the “Enzyme Activity Endpoint Assay (purified): scIgG” value came to 25 ng/µL.

Take B8: the “Enzyme Activity Endpoint Assay (purified): Fab′2” value stood at 0 ng/µL, the “Enzyme Activity Endpoint Assay (purified): Fc” value came to 39 ng/µL, the “Enzyme Activity Endpoint Assay (purified): IgG” value worked out at 1780 ng/µL and the “Enzyme Activity Endpoint Assay (purified): scIgG” value is 0 ng/µL.

For the molecule B9, the “Enzyme Activity Endpoint Assay (purified): Fab′2” value amounted to 0 ng/µL, the “Enzyme Activity Endpoint Assay (purified): Fc” value came out at 61 ng/µL, the “Enzyme Activity Endpoint Assay (purified): IgG” value stood at 2320 ng/µL and the “Enzyme Activity Endpoint Assay (purified): scIgG” value was 0 ng/µL.

B10: the “Enzyme Activity Endpoint Assay (purified): Fab′2” value amounted to 0 ng/µL, the “Enzyme Activity Endpoint Assay (purified): Fc” value is 86 ng/µL, the “Enzyme Activity Endpoint Assay (purified): IgG” value was 1580 ng/µL and the “Enzyme Activity Endpoint Assay (purified): scIgG” value was found to be 41 ng/µL.

Regarding B11, the “Enzyme Activity Endpoint Assay (purified): Fab′2” value was found to be 104 ng/µL, the “Enzyme Activity Endpoint Assay (purified): Fc” value worked out at 407 ng/µL, the “Enzyme Activity Endpoint Assay (purified): IgG” value came out at 886 ng/µL and the “Enzyme Activity Endpoint Assay (purified): scIgG” value came out at 443 ng/µL.

Regarding B12, the “Enzyme Activity Endpoint Assay (purified): Fab′2” value was found to be 467 ng/µL, the “Enzyme Activity Endpoint Assay (purified): Fc” value amounted to 27 ng/µL, the “Enzyme Activity Endpoint Assay (purified): IgG” value worked out at 1650 ng/µL and the “Enzyme Activity Endpoint Assay (purified): scIgG” value was 0 ng/µL.
